For 37 variants, abundance fitness results are on record in the Human Domainome abundance scans (Beltran et al. 2025).

First the molecules themselves.
B1: Far upstream element-binding protein 1, residues 98 to 169; numbered along this chain, Q96AE4 (parent)
chain: RSVMTEEYKVPDGMVGFIIGRGGEQISRIQQESGCKIQIAPDSGGLPERSCMLTGTPESVQSAKRLLDQIVE

± gives the uncertainty stated by the source.

The variants in this series derive from B1. The experiment in a line: abundance fitness (aPCA) (normalised: wild type 0, dead -1); higher = more abundant; growth selection in yeast, the domain comes from the species named. The following applies: Homo sapiens.
Turning to RSVMWEEYKVPDGMVGFIIGRGGEQISRIQQESGCKIQIAPDSGGLPERSCMLTGTPESVQSAKRLLDQIVE [T5W], the abundance fitness was -0.138 ± 0.029. Under RSVMPEEYKVPDGMVGFIIGRGGEQISRIQQESGCKIQIAPDSGGLPERSCMLTGTPESVQSAKRLLDQIVE [T5P] stands -0.301 ± 0.032.

RSVMYEEYKVPDGMVGFIIGRGGEQISRIQQESGCKIQIAPDSGGLPERSCMLTGTPESVQSAKRLLDQIVE [T5Y]: the abundance fitness is -0.096 ± 0.046. For RSVMMEEYKVPDGMVGFIIGRGGEQISRIQQESGCKIQIAPDSGGLPERSCMLTGTPESVQSAKRLLDQIVE [T5M], the abundance fitness is -0.012 ± 0.034.

With RSVMREEYKVPDGMVGFIIGRGGEQISRIQQESGCKIQIAPDSGGLPERSCMLTGTPESVQSAKRLLDQIVE [T5R], the abundance fitness was -0.012 ± 0.023. Under RSVMSEEYKVPDGMVGFIIGRGGEQISRIQQESGCKIQIAPDSGGLPERSCMLTGTPESVQSAKRLLDQIVE [T5S] stands -0.01 ± 0.026. Under RSVMLEEYKVPDGMVGFIIGRGGEQISRIQQESGCKIQIAPDSGGLPERSCMLTGTPESVQSAKRLLDQIVE [T5L] stands -0.11 ± 0.026.

For RSVMNEEYKVPDGMVGFIIGRGGEQISRIQQESGCKIQIAPDSGGLPERSCMLTGTPESVQSAKRLLDQIVE [T5N], the abundance fitness was -0.063 ± 0.041. The same measure for RSVMVEEYKVPDGMVGFIIGRGGEQISRIQQESGCKIQIAPDSGGLPERSCMLTGTPESVQSAKRLLDQIVE [T5V]: -0.049 ± 0.025; for RSVMIEEYKVPDGMVGFIIGRGGEQISRIQQESGCKIQIAPDSGGLPERSCMLTGTPESVQSAKRLLDQIVE [T5I]: -0.037 ± 0.038; for RSVMHEEYKVPDGMVGFIIGRGGEQISRIQQESGCKIQIAPDSGGLPERSCMLTGTPESVQSAKRLLDQIVE [T5H]: -0.055 ± 0.037. Under RSVMQEEYKVPDGMVGFIIGRGGEQISRIQQESGCKIQIAPDSGGLPERSCMLTGTPESVQSAKRLLDQIVE [T5Q] stands -0.016 ± 0.033; under RSVMTEEYAVPDGMVGFIIGRGGEQISRIQQESGCKIQIAPDSGGLPERSCMLTGTPESVQSAKRLLDQIVE [K9A], -0.114 ± 0.024. Under RSVMTEEYWVPDGMVGFIIGRGGEQISRIQQESGCKIQIAPDSGGLPERSCMLTGTPESVQSAKRLLDQIVE [K9W] stands -0.084 ± 0.026; under RSVMTEEYCVPDGMVGFIIGRGGEQISRIQQESGCKIQIAPDSGGLPERSCMLTGTPESVQSAKRLLDQIVE [K9C], -0.1 ± 0.031; under RSVMTEEYEVPDGMVGFIIGRGGEQISRIQQESGCKIQIAPDSGGLPERSCMLTGTPESVQSAKRLLDQIVE [K9E], -0.216 ± 0.032. Regarding RSVMTEEYQVPDGMVGFIIGRGGEQISRIQQESGCKIQIAPDSGGLPERSCMLTGTPESVQSAKRLLDQIVE [K9Q], the abundance fitness was -0.033 ± 0.031. Under RSVMTEEYVVPDGMVGFIIGRGGEQISRIQQESGCKIQIAPDSGGLPERSCMLTGTPESVQSAKRLLDQIVE [K9V] stands -0.098 ± 0.023. In the case of RSVMTEEYTVPDGMVGFIIGRGGEQISRIQQESGCKIQIAPDSGGLPERSCMLTGTPESVQSAKRLLDQIVE [K9T], the abundance fitness was -0.091 ± 0.027.

RSVMTEEYPVPDGMVGFIIGRGGEQISRIQQESGCKIQIAPDSGGLPERSCMLTGTPESVQSAKRLLDQIVE [K9P]: the abundance fitness was -0.112 ± 0.028. Consider RSVMTEEYNVPDGMVGFIIGRGGEQISRIQQESGCKIQIAPDSGGLPERSCMLTGTPESVQSAKRLLDQIVE [K9N], for which the abundance fitness is -0.156 ± 0.043. Under RSVMTEEYGVPDGMVGFIIGRGGEQISRIQQESGCKIQIAPDSGGLPERSCMLTGTPESVQSAKRLLDQIVE [K9G] stands -0.195 ± 0.023; under RSVMTEEYHVPDGMVGFIIGRGGEQISRIQQESGCKIQIAPDSGGLPERSCMLTGTPESVQSAKRLLDQIVE [K9H], -0.093 ± 0.041. Turning to RSVMTEEYYVPDGMVGFIIGRGGEQISRIQQESGCKIQIAPDSGGLPERSCMLTGTPESVQSAKRLLDQIVE [K9Y], the abundance fitness is -0.084 ± 0.037. The same measure for RSVMTEEYSVPDGMVGFIIGRGGEQISRIQQESGCKIQIAPDSGGLPERSCMLTGTPESVQSAKRLLDQIVE [K9S]: -0.108 ± 0.024; for RSVMTEEYFVPDGMVGFIIGRGGEQISRIQQESGCKIQIAPDSGGLPERSCMLTGTPESVQSAKRLLDQIVE [K9F]: -0.033 ± 0.033; for RSVMTEEYRVPDGMVGFIIGRGGEQISRIQQESGCKIQIAPDSGGLPERSCMLTGTPESVQSAKRLLDQIVE [K9R]: -0.053 ± 0.022.

In the case of RSVMTEEYLVPDGMVGFIIGRGGEQISRIQQESGCKIQIAPDSGGLPERSCMLTGTPESVQSAKRLLDQIVE [K9L], the abundance fitness is -0.06 ± 0.023. As for RSVMTEEYIVPDGMVGFIIGRGGEQISRIQQESGCKIQIAPDSGGLPERSCMLTGTPESVQSAKRLLDQIVE [K9I], the abundance fitness is -0.079 ± 0.035.

In the case of RSVMTEEYMVPDGMVGFIIGRGGEQISRIQQESGCKIQIAPDSGGLPERSCMLTGTPESVQSAKRLLDQIVE [K9M], the abundance fitness is -0.043 ± 0.031. For RSVMTEEYDVPDGMVGFIIGRGGEQISRIQQESGCKIQIAPDSGGLPERSCMLTGTPESVQSAKRLLDQIVE [K9D], the abundance fitness was -0.181 ± 0.032. The same measure for RSVMTMEYKVPDGMVGFIIGRGGEQISRIQQESGCKIQIAPDSGGLPERSCMLTGTPESVQSAKRLLDQIVE [E6M]: -0.01 ± 0.034. Under RSVMTQEYKVPDGMVGFIIGRGGEQISRIQQESGCKIQIAPDSGGLPERSCMLTGTPESVQSAKRLLDQIVE [E6Q] stands 0.054 ± 0.032; under RSVMTWEYKVPDGMVGFIIGRGGEQISRIQQESGCKIQIAPDSGGLPERSCMLTGTPESVQSAKRLLDQIVE [E6W], -0.048 ± 0.027. Regarding RSVMTPEYKVPDGMVGFIIGRGGEQISRIQQESGCKIQIAPDSGGLPERSCMLTGTPESVQSAKRLLDQIVE [E6P], the abundance fitness was -0.625 ± 0.039. Consider RSVMTGEYKVPDGMVGFIIGRGGEQISRIQQESGCKIQIAPDSGGLPERSCMLTGTPESVQSAKRLLDQIVE [E6G], for which the abundance fitness is -0.092 ± 0.023. Under RSVMTTEYKVPDGMVGFIIGRGGEQISRIQQESGCKIQIAPDSGGLPERSCMLTGTPESVQSAKRLLDQIVE [E6T] stands 0.029 ± 0.03.
